Measurements reported in the DeepSol protein solubility set.

assay: soluble on expression in E. coli; label from the status in PepcDB or PDB records

Sequence | soluble on expression in E. coli
MPLELTQSRVQKIWVPVDHRPSLPRSCGPKLTNSPTVIVMVGLPARGKTYISKKLTRYLNWIGVPTKVFNVGEYRREAVKQYSSYNFFRPDNEEAMKVRKQCALAALRDVKSYLAKEGGQIAVFDATNTTRERRHMILHFAKENDFKAFFIESVCDDPTVVASNIMEVKISSPDYKDCNSAEAMDDFMKRISCYEASYQPLDPDKCDRDLSLIKVIDVGRRFLVNRVQDHIQSRIVYYLMNIHVQPRTIYLCRHGENEHNLQGRIGGDSGLSSRGKKFASALSKFVEEQNLKDLRVWTSQLKSTIQTAEALRLPYEQWKALNEIDAGVCEELTYEEIRDTYPEEYALREQDKYYYRYPTGESYQDLVQRLEPVIMELERQENVLVICHQAVLRCLLAYFLDKSAEEMPYLKCPLHTVLKLTPVAYGCRVESIYLNVESVCTHRERSEDAKKGPNPLMRRNSVTPLASPEPTKKPRINSFEEHVASTSAALPSCLPPEVPTQLPGQNMKGSRSSADSSRKH | soluble
MSLAVIKQDDLIQSVADALQFISYYHPVDFIQAMHEAYLREESPAARDSMAQILINSRMCATGHRPICQDTGIVTVFVRVGMDVRWDGATMSVDDMINEGVRRAYNLPENVLRASILADPAGARKNTKDNTPAVIHYSIVPGDKVEVDVAAKGGGSENKSKMAMLNPSDSIVDWVLKTVPTMGAGWCPPGMLGIGIGGTAEKAAVMAKEVLMDPIDIHELKARGPQNRIEELRLELFEKVNQLGIGAQGLGGLTTVLDVKIMDYPTHAASLPVCMIPNCAATRHAHFVLDGSGPAELEAPSLDAYPEIVWEAGPSARRVDLDKITPEEVQSWKPGETLLLNGKMLTGRDAAHKRMVDMLNKGETLPVDLKGRFIYYVGPVDPVGDEVVGPAGPTTATRMDKFTRQILEQTGLLGMIGKSERGPIAIEAIKDNKAVYLMAVGGAAYLVAQAIKKSKVLAFAELGMEAIYEFEVKDMPVTVAVDTNGESVHITGPAVWQKKIAESLAVEVKEGGSHHHHHH | soluble
MKFDIVVIGGGLAGASLLAALKGSGLRLALIESRPPAPLPDDDSWDARVYAISPGSVEFLQSSGIWQRMNAARITPVHEMRVHGDDNAARIDFSAYESGVPELACIIENRQLQHAVWEELAGAENVQIFCPAQCDSLAWQDSHVELTLADGTVLQTALLIGADGINSRVREQAGIGVDRHSYYQTGVVANFETERVHHHIAYQWFRRDGILALLPLPGKRVSMVWSANTALADELLNLSAEALCDRVARAAEYELGSMRLVTAPLGFPLNFVHARSLIKPRLALIGDAAHGIHPLAGQGVNLGLRDVRELARLQRQFGGIGDCGEFSLLRCYERNRKEDILAMGWVTDGLQKLFGSEDAAIMRIRNVGLGITNRLPLLKNRLMRHALSLEHHHHHH | not soluble
MVFRCHYILVLEGFITQKNRLEHGGKDAGVEPPPYSNAAHHLTPWNDKRAIEAQELLKEFGIHHDSAANGVFLPYKVNEYVTTEVLHIGNHCTDYMKEVTKVLKEVKEYGGTQADAVAALHDIRIRLLDGSLKLNSPK | not soluble
MSSIRYRRPPIIERRYERTPSYSTIPRDIHVSFYHNNYHRSKILYLNKFNAMEKLIEAAHELYPSNGVYRLFSDSTIGAQNELNDSVQVMECVQNPDHILPHLHIRLEDYRPRSISRNYHEVNVPIIRTPSQHSIHQSVRFNDNKRHHHHHHHDSIRNFVHHDTPCRNCFRIIVGSRYHCLQCPDYDICGDCEKDLVHYEHALLRIVTPRVTSIPDYVTVNAPSYIFPEHRYDIKREHYHWF | not soluble
KSCCSCCPAECEKCAKDCVCKGGEAAEAEAEKCSCCQ | soluble
MSCPVIELTQQLIRRPSLSPDDAGCQALLIERLQAIGFTVERMDFADTQNFWAWRGQGETLAFAGHTDVVPPGDADRWINPPFEPTIRDGMLFGRGAADMKGSLAAMVVAAERFVAQHPNHTGRLAFLITSDEEASAHNGTVKVVEALMARNERLDYCLVGEPSSIEVVGDVVKNGRRGSLTCNLTIHGVQGHVAYPHLADNPVHRAAPFLNELVAIEWDQGNEFFPATSMQIANIQAGTGSNNVIPGELFVQFNFRFSTELTDEMIKAQVLALLEKHQLRYTVDWWLSGQPFLTARGKLVDAVVNAVEHYNEIKPQLLTTGGTSDGRFIARMGAQVVELGPVNATIHKINECVNAADLQLLARMYQRIMEQLVA | soluble
SSGLSFSEMEGCRNLLGLLDNDEIMALCDTVTNRLVQPQDRQDAVHAILAYSQSAEELLRRRKVHREVIFKYLATQGIVIPPATEKHNLIQHAKDYWQKQPQLKLKETPEPVTKTEDIHLFQQQVKEDKKAEKVDFRRLGEEFCHWFFGLLNSQNPFLGPPQDEWGPQHFWHDVKLRFYYNTSEQNVMDYHGAEIVSLRLLSLVKEEFLFLSPNLDSHGLKCASSPHGLVMVGVAGTVHRGNTCLGIFEQIFGLIRCPFVENTWKIKFINLKIMGESSLAPGTLPKPSVKFEQSDLEAFYNVITVCGTNEVRHNVKQASDSGTGDQV | soluble
MSLEDTGIFGYSRAGSINGIEYPYVINVKTDFVENDGKLNFMGEEIDRMLIYPSQIKQEIVETESFVIIPNGAELIRRPKNLVSIIMNVHEKYGFSKLIYLSGLPDPYSIPALVYLGVSFFDDAYFRIEGINGLQFTQYGIRRTNEDQTENNMNFVRSMLNVIKDSIMNGTLRDIVEKNLVSSKAAEMIRIADYSYYEEYEKIFPSRTPYIKANTIEDLYRPDIVRYREYVANLYEKPDLDVAVILPCSAKKPYSKSKSHQKVINSLSDLRKYIHEIIVTSPLGVVPRDLEETYPAMFYDIPVIGLWYEDEKVMMKRMLRSYMSRNKYRKVIAFVPDDLEFITDSIPYDTEFIEFKSSNLSKLRQTVEKEKFASKSIDQKKAKYESVLKYQFGSWILPLINGYSLRRNYNQDMIVKDGKILFVYNERLGKFTINKASAEMFVKNGRFLVEIDDFKPTSNVYAMGVRDATDDIRQEDEVVLVHSGEIRGVGIAKMNARAMMELKKGIAVKVREGHHHHHH | soluble
MSLKPSLDELESLLIARHTPNIHNKLKKGKVAILGLGGLGSNIAISLARIGVGELLLIDYDVVEPSNLNRQQYFIDDIGKLKTDAMIENIKKINPFIKLNKRDIFLNKNNMDTIKDSDLIIEAFDDASCKAQVCNYVLINLKDKYLIASSGMAGYYDSNIITTKKIKDRFYICGDFVNEAKFGEEGHHHHHH | not soluble
MVDFKLSPSQLEARRHAQAFANTVLTKASAEYSTQKDQLSRFQATRPFYREAVRHGLIKAQVPIPLGGTMESLVHESIILEELFAVEPATSITIVATALGLMPVILCDSPSLQEKFLKPFISGEGEPLASLMHSEPNGTANWLQKGGPGLQTTARKVGNEWVISGEKLWPSNSGGWDYKGADLACVVCRVSDDPSKPQDPNVDPATQIAVLLVTRETIANNKKDAYQILGEPELAGHITTSGPHTRFTEFHVPHENLLCTPGLKAQGLVETAFAMSAALVGAMAIGTARAAFEEALVFAKSDTRGGSKHIIEHQSVADKLIDCKIRLETSRLLVWKAVTTLEDEALEWKVKLEMAMQTKIYTTDVAVECVIDAMKAVGMKSYAKDMSFPRLLNEVMCYPLFDGGNIGLKRRQMQRVMALEDYEPWAATYGSSKVDKSRL | soluble
MPERIATVGWSNHEVPLALGVTPVGFEKVTWGDDDNNGILPWVEETLSKLGSDEPVLFDATDSIPFEEIANTAPDVILASYSGITQEDYDQLSQIAPVVAYPEIAWGTSLDEMIEMNSKAIGLEQEGKDLIADLDAEVASAIDANPELEHHHHHH | not soluble
MLRLARKGLQTAVVRSYAKDVKFGAEGRQAMLVGVNLLADAVSVTMGPKGRNVIIEQSWGSPKITKDGVTVAKSIDLKDKYQNLGAKLIQDVANKANEEAGDGTTCATVLARAIAKEGFESIRQGGNAVEIRRGVMNAVEVVVAELKKISKKVTTPEEIAQVATISANGDTVVGNLISDAMKKVGTTGVITVKDGKTLNDELELIEGMKFDRGYISPYFITSAKGAKVEYEKALVLLSEKKISQVQDIVPALELANKLRRPLVIIAEDVDGEALTTLVLNRLKVGLQVVAIKAPGFGDNRKNTLKDMGIATGATIFGDDSNLIKIEDITANDLGEVDEVTITKDDTLLLRGRGDQTEIEKRIEHITDEIEQSTSDYEKEKLNERLAKLSKGVAVLKIGGGSEVEVGEKKDRVTDALCATRAAVEEGIVPGGGVALLRSLTALKNYKAANEDQQIGVNIVKKALTQPIATIVKNAGLEPSSIIDEVTGNSNTSYGYDALNGKFVDMFEAGIIDPTKVVRTALQDASGVASLLATTECVVTEIPKEEAVGGPAGGMGGMGGMGGMGGMGF | not soluble
MAMIKVDQHYFELIENYRECFNEEQFIARYSDILDKYDYIVGDYGYDQLRLKGFYKDSNKKAEMSKRFSNIQDYIFEYCNFGCPYFVLRHLSKQEVKKLIEEVHPSDVIDDDNKLQDVKIKPTIQDTEHLEHHHHHH | soluble
DEEPMHYGNIMYDRRVIRGNTYALQTGPLLGRPDSLELQRQREARKRALARKQAQEQLRPQTPEPVEGRKHVDVQTELYLEEIADRIIEVDMECQTDAFLDRPPTPLFIPAKTGKDVATQILEGELFDFDLEVKPVLEVLVGKTIEQSLLEVMEEEELANLRASQREYEELRNSERAEVQRLEEQERRHREEKERRKKQQWEIMHKHNETSQKIAARAFAQRYLADLLPSVFGSLRDSGYFYDPIERDIEIGFLPWLMNEVEKTMEYSMVGRTVLDMLIREVVEKRLCMYE | not soluble
MIIRPERQGDEEAIARVTEDAFRNVEHRSGTEQLIVARLRDAGALTVSLVAEDSEGIIGHVGFSPVTLSSGETGWFCLAPLSVTPERQGEGVGSRLARDGLAVLERLSAAGCVVVGDPAYYGRFGFRPVAGLSAEGIPDEYFTVLRLHGGTPSGIVGFHPGFDGDNA | not soluble
MGSSHHHHHHSSGLVPRGSHMVHAFPHGTTATPTAIAVPPSLRLPVIEAAFPRQLHPYWPKLQETTRTWLLEKRLMPADKVEEYADGLCYTDLMAGYYLGAPDEVLQAIADYSAWFFVWDDRHDRDIVHGRAGAWRRLRGLLHTALDSPGDHLHHEDTLVAGFADSVRRLYAFLPATWNARFARHFHTVIEAYDREFHNRTRGIVPGVEEYLELRRLTFAHWIWTDLLEPSSGCELPDAVRKHPAYRRAALLSQEFAAWYNDLCSLPKEIAGDEVHNLGISLITHHSLTLEEAIGEVRRRVEECITEFLAVERDALRFADELADGTVRGKELSGAVRANVGNMRNWFSSVYWFHHESGRYMVDSWDDRSTPPYVNNEAAGEK | soluble
GGEGTDAIQALIQAYFTAWNTNAPERFAEIFWPDGSWVNVVGMHWRGRDQIVFAHTAFLKTIFKDCKQELVTIEARTIAPGSALAVVTLIQDAYVTPDGRQMPRAHDRLTLLAVEREGVWRFIHGHNTIVNPDAANNDPVLRMKPA | soluble
SLIDNPHAQDYWPNRGQMDVQGLAVKYTEAGRAVLSDISFSVEGGLSMGLLGRTGSGKSTLLSALLRLASTDGEISIDGISWNSVPLEKWRKAFGVVPQKVFILTGTFRMNLDPHGRYSDEELWRVADQVGLKSVIEQFPDRLDFQLENGGSVLSHGHKQLMCLARSILSKARILLLDEPSAYLDTITLQVLRKTLKHAFSDCTVILSEAKVEPLLECDSFLVIEGSSVKSYDSIQKLLNEMSDLKQAVSAAD | not soluble
